{
  "source": "paper PMC11289882",
  "about": "(2024)",
  "key": {"[1]": {"biological_target": "T1, CITED2 variant 3b 218-256 (Homo sapiens, UniProt Q99967, beta3-amino acid replacements in loop)", "T1 chain": "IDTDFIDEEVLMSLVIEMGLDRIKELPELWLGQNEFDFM", "experiment": "ITC"}, "CITED2 variant 2 218-256": {"biological_target": "T2, CITED2 variant 2 218-256 (Homo sapiens, UniProt Q99967, beta3-amino acid replacements in αA helix)", "T2 chain": "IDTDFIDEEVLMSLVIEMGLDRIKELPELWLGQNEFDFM", "experiment": "ITC"}, "[2]": {"biological_target": "T3, CITED2 variant 3a 218-256 (Homo sapiens, UniProt Q99967, beta3-amino acid replacements in loop (LPEL motif))", "T3 chain": "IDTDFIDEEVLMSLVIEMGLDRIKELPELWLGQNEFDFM", "experiment": "ITC"}, "CITED2 variant 4 218-256": {"biological_target": "T4, CITED2 variant 4 218-256 (Homo sapiens, UniProt Q99967, beta3-amino acid replacements in C-terminus)", "T4 chain": "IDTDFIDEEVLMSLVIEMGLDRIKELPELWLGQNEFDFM", "experiment": "ITC"}, "CITED2 variant 1 218-256": {"biological_target": "T5, CITED2 variant 1 218-256 (Homo sapiens, UniProt Q99967, beta3-amino acid replacements in N-terminal tail)", "T5 chain": "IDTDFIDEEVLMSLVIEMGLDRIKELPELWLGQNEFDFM", "experiment": "ITC"}, "[3]": {"biological_target": "T6, CITED2 variant 3c 218-256 (Homo sapiens, UniProt Q99967, beta3-amino acid replacements in loop)", "T6 chain": "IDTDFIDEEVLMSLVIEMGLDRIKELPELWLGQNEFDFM", "experiment": "ITC"}, "HIF-1α 776-826": {"biological_target": "T7, HIF-1α 776-826 (Homo sapiens, UniProt Q16665)", "T7 chain": "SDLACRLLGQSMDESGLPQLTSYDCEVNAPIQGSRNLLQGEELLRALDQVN", "experiment": "anisotropy"}},
  "data": [
    {"binder": "p300 TAZ1 330-420 (protein) not shown", "values": [
      {"measurement": "Kd", "setting": "[1]", "result": 98, "unit": "nM"},
      {"measurement": "Kd", "setting": "CITED2 variant 2 218-256", "result": 16, "unit": "nM"},
      {"measurement": "Kd", "setting": "[2]", "result": 675, "unit": "nM"},
      {"measurement": "Kd", "setting": "CITED2 variant 4 218-256", "result": 17, "unit": "nM"},
      {"measurement": "Kd", "setting": "CITED2 variant 1 218-256", "result": 19, "unit": "nM"},
      {"measurement": "Kd", "setting": "[3]", "result": 29, "unit": "nM"},
      {"measurement": "Kd", "setting": "HIF-1α 776-826", "result": 57, "unit": "nM"}
    ]}
  ]
}
